Numbering of substitutions follows the chain as printed. Where no end group is shown, it is not given here. [ ]: non-standard residue; d: D form. pT = C[C@@H](OP(=O)(O)O)[C@H](N)C(=O)O; pS = N[C@@H](COP(=O)(O)O)C(=O)O
What was measured:
Experiment in all cases: ITC
Mad1^CTD R650A = molecular target: T1, Mad1^CTD R650A (human, UniProt Q9Y6D9 597-718, R650A)
T1 sequence: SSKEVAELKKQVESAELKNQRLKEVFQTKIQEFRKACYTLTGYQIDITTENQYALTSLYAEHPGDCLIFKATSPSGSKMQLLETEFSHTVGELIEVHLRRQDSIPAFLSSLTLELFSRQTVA

Mad1CTD K614A = molecular target: T2, Mad1CTD K614A (Homo sapiens)
T2 chain: T1 sequence with K18A, A54R

Mad1^CTD I643A = molecular target: T3, Mad1^CTD I643A (human, UniProt Q9Y6D9 597-718, I643A)
T3 sequence: T1 sequence with I47A, A54R

Mad1^CTD Q627A = molecular target: T4, Mad1^CTD Q627A (human, UniProt Q9Y6D9 597-718, Q627A)
T4 sequence: T1 sequence with Q31A, A54R

B1: doubly phosphorylated Bub1^CD1 peptide (pSer459-pThr461) (peptide)
peptide: KVQP[pS]P[pT]VHTKEALGFIMNMFQAPTS
Kd (Mad1^CTD R650A): 1100 nM
Kd (Mad1CTD K614A): 2400 nM
Kd (Mad1^CTD I643A): 1400 nM
Kd (Mad1^CTD Q627A): 2400 nM

— publication PMC8391104 (2021)
